Earlier results, collected in US6660905B1, “Mice comprising engrafted functional human hepatocytes” (The Board of Trustees of the Leland Stanford Junior …, priority 1999, dated 2003).

HGF: human hepatocyte growth factor
half-life: on the order of minutes
